Laboratory results reported in the supplement of paper PMC5998384.

Experiments:
[1] = system: HeLa Kyoto; experiment: solubility in G1/S (NP-40 vs SDS abundance) (log2 ratio); higher = more soluble; conditions: cell cycle stage: G1/S
[2] = system: HeLa Kyoto; experiment: solubility change mitosis vs G1/S (difference of NP-40 vs SDS log2 ratios) (log2 ratio difference); higher = more soluble in mitosis
[3] = system: HeLa Kyoto; experiment: thermal stability score vs G1/S (z-score of summed log2 fold changes over temperatures); higher = more thermally stable than in G1/S
[4] = cell cycle stage: early G1 (4.5 h after nocodazole release)
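Throughout, for solubility change mitosis vs G1/S (difference of NP-40 vs SDS log2 ratios): synchronized HeLa Kyoto cells (double thymidine block for G1/S, nocodazole release for mitosis), protein amounts in NP-40 versus SDS lysates quantified by mass spectrometry, three biological replicates.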
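Throughout, for solubility in G1/S (NP-40 vs SDS abundance): HeLa Kyoto cells arrested at G1/S by double thymidine block, proteins quantified by TMT10plex mass spectrometry in mild NP-40 versus SDS extracts, three biological replicates.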
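Throughout, for thermal stability score vs G1/S (z-score of summed log2 fold changes over temperatures): synchronized HeLa Kyoto cells, proteins quantified by TMT10plex mass spectrometry, three biological replicates, mitosis taken 0.5 h after nocodazole release, G1/S directly after double thymidine block.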

| Substance | solubility in G1/S (log2) [1] | solubility change mitosis (log2) [2] | thermal stability score [3, 4] | thermal stability score ([3]; cell cycle stage: mitosis) |
| --- | --- | --- | --- | --- |
| MTTAQRDSLLWKLAGLLRESGDVVLSGCSTLSLLTPTLQQLNHVFELHLGPWGPGQTGFVALPSHPADSPVILQLQFLFDVLQKTLSLKLVHVAGPGPTGPIKIFPFKSLRHLELRGVPLHCLHGLRGIYSQLETLICSRSLQALEELLSACGGDFCSALPWLALLSANFSYNALTALDSSLRLLSALRFLNLSHNQVQDCQGFLMDLCELHHLDISYNRLHLVPRMGPSGAALGVLILRGNELRSLHGLEQLRNLRHLDLAYNLLEGHRELSPLWLLAELRKLYLEGNPLWFHPEHRAATAQYLSPRARDAATGFLLDGKVLSLTDFQTHTSLGLSPMGPPLPWPVGSTPETSGGPDLSDSLSSGGVVTQPLLHKVKSRVRVRRASISEPSDTDPEPRTLNPSPAGWFVQQHPELELMSSFRERFGRNWLQYRSHLEPSGNPLPATPTTSAPSAPPASSQGPDTAPRPSPPQEEARGPQESPQKMSEEVRAEPQEEEEEKEGKEEKEEGEMVEQGEEEAGEEEEEEQDQKEVEAELCRPLLVCPLEGPEGVRGRECFLRVTSAHLFEVELQAARTLERLELQSLEAAEIEPEAQAQRSPRPTGSDLLPGAPILSLRFSYICPDRQLRRYLVLEPDAHAAVQELLAVLTPVTNVAREQLGEARDLLLGRFQCLRCGHEFKPEEPRMGLDSEEGWRPLFQKTESPAVCPNCGSDHVVLLAVSRGTPNRERKQGEQSLAPSPSASPVCHPPGHGDHLDRAKNSPPQAPSTRDHGSWSLSPPPERCGLRSVDHRLRLFLDVEVFSDAQEEFQCCLKVPVALAGHTGEFMCLVVVSDRRLYLLKVTGEMREPPASWLQLTLAVPLQDLSGIELGLAGQSLRLEWAAGAGRCVLLPRDARHCRAFLEELLDVLQSLPPAWRNCVSATEEEVTPQHRLWPLLEKDSSLEARQFFYLRAFLVEGPSTCLVSLLLTPSTLFLLDEDAAGSPAEPSPPAASGEASEKVPPSGPGPAVRVREQQPLSSLSSVLLYRSAPEDLRLLFYDEVSRLESFWALRVVCQEQLTALLAWIREPWEELFSIGLRTVIQEALALDR [STK11IP] | -0.0528 | -0.0941 | -0.272 | -1.04 |
| MDWQPDEQGLQQVLQLLKDSQSPNTATQRIVQDKLKQLNQFPDFNNYLIFVLTRLKSEDEPTRSLSGLILKNNVKAHYQSFPPPVADFIKQECLNNIGDASSLIRATIGILITTIASKGELQMWPELLPQLCNLLNSEDYNTCEGAFGALQKICEDSSELLDSDALNRPLNIMIPKFLQFFKHCSPKIRSHAIACVNQFIMDRAQALMDNIDTFIEHLFALAVDDDPEVRKNVCRALVMLLEVRIDRLIPHMHSIIQYMLQRTQDHDENVALEACEFWLTLAEQPICKEVLASHLVQLIPILVNGMKYSEIDIILLKGDVEEDEAVPDSEQDIKPRFHKSRTVTLPHEAERPDGSEDAEDDDDDDALSDWNLRKCSAAALDVLANVFREELLPHLLPLLKGLLFHPEWVVKESGILVLGAIAEGCMQGMVPYLPELIPHLIQCLSDKKALVRSIACWTLSRYAHWVVSQPPDMHLKPLMTELLKRILDGNKRVQEAACSAFATLEEEACTELVPYLSYILDTLVFAFGKYQHKNLLILYDAIGTLADSVGHHLNQPEYIQKLMPPLIQKWNELKDEDKDLFPLLECLSSVATALQSGFLPYCEPVYQRCVTLVQKTLAQAMMYTQHPEQYEAPDKDFMIVALDLLSGLAEGLGGHVEQLVARSNIMTLLFQCMQDSMPEVRQSSFALLGDLTKACFIHVKPCIAEFMPILGTNLNPEFISVCNNATWAIGEICMQMGAEMQPYVQMVLNNLVEIINRPNTPKTLLENTGRLTSPSAIPAITIGRLGYVCPQEVAPMLQQFIRPWCTSLRNIRDNEEKDSAFRGICMMIGVNPGGVVQDFIFFCDAVASWVSPKDDLRDMFYKILHGFKDQVGEDNWQQFSEQFPPLLKERLAAFYGV [TNPO2] | 0.0053 | -0.263 | -0.161 | 0.756 |
| DISP1 | 0.0363 | -0.159 | -0.198 | 0.756 |
| MKRRNADCSKLRRPLKRNRITEGIYGSTFLYLKFLVVWALVLLADFVLEFRFEYLWPFWLFIRSVYDSFRYQGLAFSVFFVCVAFTSNIICLLFIPIQWLFFAASTYVWVQYVWHTERGVCLPTVSLWILFVYIEAAIRFKDLKNFHVDLCRPFAAHCIGYPVVTLGFGFKSYVSYKMRLRKQKEVQKENEFYMQLLQQALPPEQQMLQKQEKEAEEAAKGLPDMDSSILIHHNGGIPANKKLSTTLPEIEYREKGKEKDKDAKKHNLGINNNNILQPVDSKIQEIEYMENHINSKRLNNDLVGSTENLLKEDSCTASSKNYKNASGVVNSSPRSHSATNGSIPSSSSKNEKKQKCTSKSPSTHKDLMENCIPNNQLSKPDALVRLEQDIKKLKADLQASRQVEQELRSQISSLSSTERGIRSEMGQLRQENELLQNKLHNAVQMKQKDKQNISQLEKKLKAEQEARSFVEKQLMEEKKRKKLEEATAARAVAFAAASRGECTETLRNRIRELEAEGKKLTMDMKVKEDQIRELELKVQELRKYKENEKDTEVLMSALSAMQDKTQHLENSLSAETRIKLDLFSALGDAKRQLEIAQGQILQKDQEIKDLKQKIAEVMAVMPSITYSAATSPLSPVSPHYSSKFVETSPSGLDPNASVYQPLKK [TMEM57] | -0.363 | 0.256 | -1.41 | -2.47 |
| MGKRDNRVAYMNPIAMARSRGPIQSSGPTIQDYLNRPRPTWEEVKEQLEKKKKGSKALAEFEEKMNENWKKELEKHREKLLSGSESSSKKRQRKKKEKKKSGRYSSSSSSSSDSSSSSSDSEDEDKKQGKRRKKKKNRSHKSSESSMSETESDSKDSLKKKKKSKDGTEKEKDIKGLSKKRKMYSEDKPLSSESLSESEYIEEVRAKKKKSSEEREKATEKTKKKKKHKKHSKKKKKKAASSSPDSP [FAM133B] | -1.16 | 0.889 | -5.3 | -3.34 |
| MTNPWEEKVCKMAQTSLLQGKQFYCREWVFHKLQHCLQEKSNCCNSAVNAPSLVMNSGNNASGVSGKGAAWGVLLVGGPGSGKTALCTELLWPSSPASLQRGLHRQALAFHFCKAQDSDTLCVGGFIRGLVAQICRSGLLQGYEDKLRDPAVQSLLQPGECERNPAEAFKRCVLLPLLGMKPPQQSLYLLVDSVDEGCNITEGEQTSTSLSGTVAALLAGHHEFFPPWLLLLCSARKQSKAVTKMFTGFRKISLDDLRKAYIVKDVQQYILHRLDQEEALRQHLTKETAEMLNQLHIKSSGCFLYLERVLDGVVENFIMLREIRDIPGTLNGLYLWLCQRLFVRKQFAKVQPILNVILAACRPLTITELYHAVWTKNMSLTLEDFQRKLDILSKLLVDGLGNTKILFHYSFAEWLLDVKHCTQKYLCNAAEGHRMLAMSYTCQAKNLTPLEAQEFALHLINSNLQLETAELALWMIWNGTPVRDSLSTLIPKEQEVLQLLVKAGAHVNSEDDRTSCIVRQALEREDSIRTLLDNGASVNQCDSNGRTLLANAAYSGSLDVVNLLVSRGADLEIEDAHGHTPLTLAARQGHTKVVNCLIGCGANINHTDQDGWTALRSAAWGGHTEVVSALLYAGVKVDCADADSRTALRAAAWGGHEDIVLNLLQHGAEVNKADNEGRTALIAAAYMGHREIVEHLLDHGAEVNHEDVDGRTALSVAALCVPASKGHASVVSLLIDRGAEVDHCDKDGMTPLLVAAYEGHVDVVDLLLEGGADVDHTDNNGRTPLLAAASMGHASVVNTLLFWGAAVDSIDSEGRTVLSIASAQGNVEVVRTLLDRGLDENHRDDAGWTPLHMAAFEGHRLICEALIEQGARTNEIDNDGRIPFILASQEGHYDCVQILLENKSNIDQRGYDGRNALRVAALEGHRDIVELLFSHGADVNCKDADGRPTLYILALENQLTMAEYFLENGANVEASDAEGRTALHVSCWQGHMEMVQVLIAYHADVNAADNEKRSALQSAAWQGHVKVVQLLIEHGAVVDHTCNQGATALCIAAQEGHIDVVQVLLEHGADPNHADQFGRTAMRVAAKNGHSQIIKLLEKYGASSLNGCSPSPVHTMEQKPLQSLSSKVQSLTIKSNSSGSTGGGDMQPSLRGLPNGPTHAFSSPSESPDSTVDRQKSSLSNNSLKSSKNSSLRTTSSTATAQTVPIDSFHNLSFTEQIQQHSLPRSRSRQSIVSPSSTTQSLGQSHNSPSSEFEWSQVKPSLKSTKASKGGKSENSAKSGSAGKKAKQSNSSQPKVLEYEMTQFDRRGPIAKSGTAAPPKQMPAESQCKIMIPSAQQEIGRSQQQFLIHQQSGEQKKRNGIMTNPNYHLQSNQVFLGRVSVPRTMQDRGHQEVLEGYPSSETELSLKQALKLQIEGSDPSFNYKKETPL [ANKRD50] | 0.02 | -0.256 | -0.667 | -0.543 |
